Values quoted from earlier work, collected in publication PMC7687380.

Target: LRP1 (Homo sapiens) (UniProt Q07954)
Chain of UniProt Q07954 (Q07954 20-4544): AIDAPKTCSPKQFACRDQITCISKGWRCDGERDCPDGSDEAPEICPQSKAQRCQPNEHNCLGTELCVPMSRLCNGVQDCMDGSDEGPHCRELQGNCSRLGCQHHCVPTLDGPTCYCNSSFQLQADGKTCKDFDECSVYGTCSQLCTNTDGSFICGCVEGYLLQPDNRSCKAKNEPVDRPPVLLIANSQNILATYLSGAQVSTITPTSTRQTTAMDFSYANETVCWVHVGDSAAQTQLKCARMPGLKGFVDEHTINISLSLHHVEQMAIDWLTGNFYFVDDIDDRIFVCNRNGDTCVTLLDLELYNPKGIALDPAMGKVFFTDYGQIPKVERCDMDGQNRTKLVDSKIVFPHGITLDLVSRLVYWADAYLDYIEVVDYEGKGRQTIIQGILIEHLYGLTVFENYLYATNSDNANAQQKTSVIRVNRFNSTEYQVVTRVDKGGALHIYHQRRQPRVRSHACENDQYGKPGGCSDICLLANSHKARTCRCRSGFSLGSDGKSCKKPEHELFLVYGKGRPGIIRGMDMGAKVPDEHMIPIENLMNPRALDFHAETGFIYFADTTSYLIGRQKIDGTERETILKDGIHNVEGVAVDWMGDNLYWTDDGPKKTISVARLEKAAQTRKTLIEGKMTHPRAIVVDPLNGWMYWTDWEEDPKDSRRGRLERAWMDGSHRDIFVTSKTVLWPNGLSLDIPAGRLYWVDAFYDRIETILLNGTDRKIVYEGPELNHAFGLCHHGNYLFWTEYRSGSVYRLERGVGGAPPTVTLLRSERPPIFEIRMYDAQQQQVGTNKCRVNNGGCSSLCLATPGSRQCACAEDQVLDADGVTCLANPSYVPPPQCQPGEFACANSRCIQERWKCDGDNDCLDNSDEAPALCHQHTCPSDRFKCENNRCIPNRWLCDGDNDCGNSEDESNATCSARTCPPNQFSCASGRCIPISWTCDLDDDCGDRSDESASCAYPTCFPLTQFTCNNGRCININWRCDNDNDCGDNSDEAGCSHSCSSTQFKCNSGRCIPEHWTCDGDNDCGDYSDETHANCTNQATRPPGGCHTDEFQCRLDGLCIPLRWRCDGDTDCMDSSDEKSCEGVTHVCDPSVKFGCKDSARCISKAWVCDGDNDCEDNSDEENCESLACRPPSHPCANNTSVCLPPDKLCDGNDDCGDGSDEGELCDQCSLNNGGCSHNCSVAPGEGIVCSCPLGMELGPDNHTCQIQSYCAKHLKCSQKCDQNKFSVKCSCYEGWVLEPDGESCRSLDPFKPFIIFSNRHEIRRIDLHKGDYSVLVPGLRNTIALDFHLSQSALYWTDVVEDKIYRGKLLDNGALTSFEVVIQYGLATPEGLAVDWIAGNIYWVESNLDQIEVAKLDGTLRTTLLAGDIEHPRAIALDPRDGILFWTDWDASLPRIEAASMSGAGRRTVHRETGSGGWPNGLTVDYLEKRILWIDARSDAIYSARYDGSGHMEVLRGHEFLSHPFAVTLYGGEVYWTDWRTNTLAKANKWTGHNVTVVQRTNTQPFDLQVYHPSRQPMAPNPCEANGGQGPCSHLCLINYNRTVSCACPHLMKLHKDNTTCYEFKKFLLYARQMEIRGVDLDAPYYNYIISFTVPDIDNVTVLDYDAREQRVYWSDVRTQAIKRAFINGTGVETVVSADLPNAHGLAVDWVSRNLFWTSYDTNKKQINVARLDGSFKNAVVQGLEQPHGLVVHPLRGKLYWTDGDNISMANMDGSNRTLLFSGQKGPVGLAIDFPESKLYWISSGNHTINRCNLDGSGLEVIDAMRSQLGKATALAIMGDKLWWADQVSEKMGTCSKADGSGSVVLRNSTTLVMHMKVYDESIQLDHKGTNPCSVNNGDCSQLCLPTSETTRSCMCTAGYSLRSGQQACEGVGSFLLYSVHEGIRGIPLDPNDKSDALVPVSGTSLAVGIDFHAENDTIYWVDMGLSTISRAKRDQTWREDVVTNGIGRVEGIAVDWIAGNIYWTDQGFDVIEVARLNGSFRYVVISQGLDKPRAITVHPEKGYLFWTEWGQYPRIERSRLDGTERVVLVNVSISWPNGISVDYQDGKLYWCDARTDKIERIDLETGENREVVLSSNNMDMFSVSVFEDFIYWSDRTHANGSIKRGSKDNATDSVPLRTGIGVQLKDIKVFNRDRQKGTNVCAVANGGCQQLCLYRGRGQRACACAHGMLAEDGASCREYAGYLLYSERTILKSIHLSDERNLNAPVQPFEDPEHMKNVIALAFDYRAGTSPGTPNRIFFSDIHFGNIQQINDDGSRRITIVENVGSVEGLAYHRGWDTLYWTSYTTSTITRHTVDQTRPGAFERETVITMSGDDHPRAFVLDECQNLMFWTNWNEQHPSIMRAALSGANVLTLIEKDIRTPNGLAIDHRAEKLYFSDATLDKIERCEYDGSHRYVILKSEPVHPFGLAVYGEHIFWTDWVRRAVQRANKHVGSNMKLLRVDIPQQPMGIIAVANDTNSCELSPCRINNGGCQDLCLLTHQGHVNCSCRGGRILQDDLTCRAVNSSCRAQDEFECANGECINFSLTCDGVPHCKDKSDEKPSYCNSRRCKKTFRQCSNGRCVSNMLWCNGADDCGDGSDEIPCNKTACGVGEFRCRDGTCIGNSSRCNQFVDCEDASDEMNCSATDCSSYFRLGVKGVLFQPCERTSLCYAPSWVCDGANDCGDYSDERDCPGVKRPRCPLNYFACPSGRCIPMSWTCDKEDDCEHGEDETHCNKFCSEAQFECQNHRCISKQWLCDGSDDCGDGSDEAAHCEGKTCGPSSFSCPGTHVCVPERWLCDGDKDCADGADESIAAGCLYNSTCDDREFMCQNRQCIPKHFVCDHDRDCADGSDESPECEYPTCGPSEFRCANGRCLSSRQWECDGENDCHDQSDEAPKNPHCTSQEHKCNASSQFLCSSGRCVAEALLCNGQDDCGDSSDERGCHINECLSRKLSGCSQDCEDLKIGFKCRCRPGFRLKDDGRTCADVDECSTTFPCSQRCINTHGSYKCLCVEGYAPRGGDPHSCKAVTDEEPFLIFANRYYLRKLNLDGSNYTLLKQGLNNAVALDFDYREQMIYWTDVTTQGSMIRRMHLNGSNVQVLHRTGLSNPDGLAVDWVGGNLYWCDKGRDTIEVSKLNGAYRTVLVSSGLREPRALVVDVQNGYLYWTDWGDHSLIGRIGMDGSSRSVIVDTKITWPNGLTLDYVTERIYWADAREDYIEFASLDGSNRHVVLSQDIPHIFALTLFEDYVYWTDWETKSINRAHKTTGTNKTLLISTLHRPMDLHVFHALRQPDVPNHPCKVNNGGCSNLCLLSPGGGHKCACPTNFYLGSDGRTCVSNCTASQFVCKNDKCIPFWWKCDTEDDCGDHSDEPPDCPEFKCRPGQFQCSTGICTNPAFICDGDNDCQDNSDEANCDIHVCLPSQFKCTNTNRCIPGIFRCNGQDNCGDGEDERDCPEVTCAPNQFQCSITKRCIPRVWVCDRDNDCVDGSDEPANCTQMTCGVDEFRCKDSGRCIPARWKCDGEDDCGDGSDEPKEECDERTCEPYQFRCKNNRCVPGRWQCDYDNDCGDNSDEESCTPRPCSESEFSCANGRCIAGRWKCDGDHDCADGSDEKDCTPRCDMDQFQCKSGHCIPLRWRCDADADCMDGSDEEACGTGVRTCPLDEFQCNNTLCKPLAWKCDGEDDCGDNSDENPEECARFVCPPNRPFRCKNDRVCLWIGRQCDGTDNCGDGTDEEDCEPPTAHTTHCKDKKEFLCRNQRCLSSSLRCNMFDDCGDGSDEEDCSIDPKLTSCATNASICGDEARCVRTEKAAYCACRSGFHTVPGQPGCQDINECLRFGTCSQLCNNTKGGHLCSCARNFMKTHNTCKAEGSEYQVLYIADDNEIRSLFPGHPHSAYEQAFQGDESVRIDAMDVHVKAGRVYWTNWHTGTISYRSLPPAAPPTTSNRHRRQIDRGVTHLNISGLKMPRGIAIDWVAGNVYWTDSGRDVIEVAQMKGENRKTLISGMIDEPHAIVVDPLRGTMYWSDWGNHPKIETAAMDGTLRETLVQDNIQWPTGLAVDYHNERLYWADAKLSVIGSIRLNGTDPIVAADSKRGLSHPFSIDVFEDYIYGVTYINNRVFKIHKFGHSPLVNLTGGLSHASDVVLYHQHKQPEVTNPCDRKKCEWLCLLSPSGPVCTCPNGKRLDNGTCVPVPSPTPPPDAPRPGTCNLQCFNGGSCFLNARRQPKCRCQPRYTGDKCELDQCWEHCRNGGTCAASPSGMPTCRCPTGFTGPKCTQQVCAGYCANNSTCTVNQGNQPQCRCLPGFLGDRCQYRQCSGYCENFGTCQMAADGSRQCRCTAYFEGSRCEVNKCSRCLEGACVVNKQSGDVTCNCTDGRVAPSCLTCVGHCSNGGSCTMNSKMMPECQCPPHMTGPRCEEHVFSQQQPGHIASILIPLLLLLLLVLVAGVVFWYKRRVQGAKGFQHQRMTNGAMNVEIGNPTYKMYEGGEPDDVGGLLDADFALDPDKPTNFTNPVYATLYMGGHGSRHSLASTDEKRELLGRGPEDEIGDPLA

Kd: 9 nM
Substance: RAP (from UniProt P30533)
